Experimental data published in US20150139990A1 (DAINIPPON SUMITOMO PHARMA, published 2015).
Substitutions are numbered along the chain they refer to. Names and notes keep the numbering of the source.

Experiments:
Assay in all cases: ELISA
[1] = biological target: T1, human CD81 mutant G158S (human, UniProt P60033 1-236, limits assumed)
T1 construct: as m30; not shown: C-terminal V5 and 6xHis tags
T1 sequence: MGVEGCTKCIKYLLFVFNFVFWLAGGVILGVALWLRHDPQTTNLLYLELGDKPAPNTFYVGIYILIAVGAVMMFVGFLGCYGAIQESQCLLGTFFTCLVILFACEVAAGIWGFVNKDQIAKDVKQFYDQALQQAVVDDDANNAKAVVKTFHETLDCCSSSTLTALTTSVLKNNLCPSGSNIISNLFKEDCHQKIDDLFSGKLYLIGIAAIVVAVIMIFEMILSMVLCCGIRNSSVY
Procedure, shortened: (§1)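 Relative binding affinity was taken as the percentage of binding to unmodified CD81, corrected for V5-tag expression. The altered CD81 proteins, tagged with V5 and 6×His, were expressed in CHO cells for 48 hours, and 1% n-octylglucoside membrane extracts were loaded onto Ni-NTA His Sorb plates at 5 μg/100 μL/well (3 hours, 4° C). After 1 hour of antibody binding at room temperature, detection used HRP anti-human IgG4 with TMB at 450 nm.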

[2] = biological target: T2, human CD81 mutant V169L (human, UniProt P60033 1-236, limits assumed)
T2 construct: as m30; not shown: C-terminal V5 and 6xHis tags
T2 sequence: T1 sequence with S158G, V169L
Procedure, shortened: as §1

[3] = biological target: T3, h80c human-chicken CD81 chimera (human; chicken)
T3 construct: as m30; not shown: C-terminal V5 and 6xHis tags
T3 chain: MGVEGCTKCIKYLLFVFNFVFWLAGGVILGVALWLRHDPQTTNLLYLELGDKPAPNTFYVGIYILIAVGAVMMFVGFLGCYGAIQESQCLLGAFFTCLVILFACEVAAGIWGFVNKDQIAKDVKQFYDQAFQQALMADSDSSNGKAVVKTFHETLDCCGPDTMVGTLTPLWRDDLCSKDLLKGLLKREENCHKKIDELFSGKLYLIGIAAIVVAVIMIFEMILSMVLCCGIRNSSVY
Procedure: (§2) To identify the epitopes to which each of the anti-human CD81 antibodies (002-A07 and 005-001) bind, ELISA assays were performed using human-chicken CD81 chimera constructs listed in Table 6. Each construct was transiently expressed in CHO cells and its cell membrane fraction was solubilized with detergents and immobilized onto a plate.
(§3) As control antibodies, human IgG4 antibody (Acris Antibodies GmbH) and mouse IgG antibody were used. Human-chicken chimera protein was captured via His tag introduced into the C-terminal by adding the membrane fraction (5 μg/100 μL/well) prepared (1) above to Ni NTA His Sorb plate (QIAGEN) in the presence of 1% (w/v) n-Octylglucoside and incubating for 3 hours at 4° C. After washing with TBST (TBS, 0.05% (v/v) Tween 20) three times, an anti-human CD81 antibody or a control antibody (50 μL/well) was added and incubated for 1 hour at room temperature (RT). After washing, 2000 fold-diluted HRP-labeled anti-human IgG4 antibody (Mouse anti-human IgG₄ HRP clone:HP6023 Beckman Coulter) or 1000 fold-diluted HRP-labeled anti-mouse IgG antibody (Invitrogen) (50 μL/well) were added. The plate was incubated for 1 hour at RT and washed with TBST three times. And then, peroxidase activity was determined by TMB One solution (Promega; Code 53025). The reaction was stopped with 2 M H₂SO₄ (50 μL) and absorbance at 450 nm was measured.

[4] = biological target: T4, c138h human-chicken CD81 chimera (chicken; human, UniProt P60033 1-236)
T4 construct: as m30; not shown: C-terminal V5 and 6xHis tags
T4 chain: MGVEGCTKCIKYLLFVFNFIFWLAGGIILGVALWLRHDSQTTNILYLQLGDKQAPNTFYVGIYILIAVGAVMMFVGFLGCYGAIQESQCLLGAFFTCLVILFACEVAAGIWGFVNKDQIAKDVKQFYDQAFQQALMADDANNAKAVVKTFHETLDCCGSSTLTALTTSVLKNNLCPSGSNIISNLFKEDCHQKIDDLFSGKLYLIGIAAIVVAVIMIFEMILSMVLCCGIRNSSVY
Procedure: as §2, §3

[5] = biological target: T5, h138c human-chicken CD81 chimera (human; chicken)
T5 construct: as m30; not shown: C-terminal V5 and 6xHis tags
T5 chain: T3 chain with A93T, F131L, L135V, M136V, A137D
Procedure: as §2, §3

[6] = biological target: T6, h156c human-chicken CD81 chimera (human; chicken)
T6 construct: as m30; not shown: C-terminal V5 and 6xHis tags
T6 chain: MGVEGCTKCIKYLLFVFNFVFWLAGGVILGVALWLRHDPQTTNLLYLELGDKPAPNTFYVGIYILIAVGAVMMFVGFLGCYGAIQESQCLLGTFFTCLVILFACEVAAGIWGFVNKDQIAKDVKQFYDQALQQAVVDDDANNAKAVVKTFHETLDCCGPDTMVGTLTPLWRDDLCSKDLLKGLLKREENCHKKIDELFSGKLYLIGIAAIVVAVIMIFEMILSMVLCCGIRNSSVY
Procedure: as §2, §3

[7] = biological target: T7, c156h human-chicken CD81 chimera (chicken; human, UniProt P60033 1-236)
T7 construct: as m30; not shown: C-terminal V5 and 6xHis tags
T7 chain: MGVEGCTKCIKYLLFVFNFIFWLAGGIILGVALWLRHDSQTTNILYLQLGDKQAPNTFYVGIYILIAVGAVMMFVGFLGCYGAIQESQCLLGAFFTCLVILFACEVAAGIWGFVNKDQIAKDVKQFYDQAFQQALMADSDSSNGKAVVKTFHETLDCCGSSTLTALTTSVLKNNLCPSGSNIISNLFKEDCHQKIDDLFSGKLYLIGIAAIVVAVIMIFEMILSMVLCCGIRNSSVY
Procedure: as §2, §3

B1: 002-A07 IgG4 antibody (antibody)
heavy: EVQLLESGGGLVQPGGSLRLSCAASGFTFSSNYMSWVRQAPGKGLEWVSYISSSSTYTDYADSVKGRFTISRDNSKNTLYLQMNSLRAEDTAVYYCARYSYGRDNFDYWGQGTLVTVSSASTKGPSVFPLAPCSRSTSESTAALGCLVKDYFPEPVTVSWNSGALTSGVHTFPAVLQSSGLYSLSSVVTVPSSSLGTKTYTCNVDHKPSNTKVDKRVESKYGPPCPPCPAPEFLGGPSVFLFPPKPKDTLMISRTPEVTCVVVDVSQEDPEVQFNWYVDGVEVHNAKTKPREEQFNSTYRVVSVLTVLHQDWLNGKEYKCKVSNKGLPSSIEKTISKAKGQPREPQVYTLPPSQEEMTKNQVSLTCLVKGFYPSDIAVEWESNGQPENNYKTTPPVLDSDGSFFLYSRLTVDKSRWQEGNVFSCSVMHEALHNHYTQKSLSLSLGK
light: QSVLTQPPSASGTPGQRVTISCTGSTSNIGAGYDTHWYQQLPGTAPKLLIYGNSNRPSGVPDRFSGSKSGTSASLAISGLRSEDEADYYCQSYDTNLSVWVFGGGTKLTVLGQPKAAPSVTLFPPSSEELQANKATLVCLISDFYPGAVTVAWKADSSPVKAGVETTTPSKQSNNKYAASSYLSLTPEQWKSHRSYSCQVTHEGSTVEKTVAPTECS
notes: human IgG4 S228P, lambda light chain
relative binding affinity [1]: < 20% | relative binding affinity [2]: < 20% | absorbance at 450 nm relative to hCD81 [3]: < 10% | absorbance at 450 nm relative to hCD81 [4]: < 10% | absorbance at 450 nm relative to hCD81 [5]: < 10% | absorbance at 450 nm relative to hCD81 [6]: < 10% | absorbance at 450 nm relative to hCD81 [7]: < 10%
